Laboratory results taken from publication PMC5028754 (2016).

B1: full-length yeast Ddi1 (natural protein)
chain: MDLTISNELTGEIYGPIEVSEDMALTDLIALLQADCGFDKTKHDLYYNMDILDSNRTQSLKELGLKTDDLLLIRGKISNSIQTDAATLSDEAFIEQFRQELLNNQMLRSQLILQIPGLNDLVNDPLLFRERLGPLILQRRYGGYNTAMNPFGIPQDEYTRLMANPDDPDNKKRIAELLDQQAIDEQLRNAIEYTPEMFTQVPMLYINIEINNYPVKAFVDTGAQTTIMSTRLAKKTGLSRMIDKRFIGEARGVGTGKIIGRIHQAQVKIETQYIPCSFTVLDTDIDVLIGLDMLKRHLACVDLKENVLRIAEVETSFLSEAEIPKSFQEGLPAPTSVTTSSDKPLTPTKTSSTLPPQPGAVPALAPRTGMGPTPTGRSTAGATTATGRTFPEQTIKQLMDLGFPRDAVVKALKQTNGNAEFAASLLFQ
B2: Ddi1 RVP-UBA (180-428) (domain or fragment)
chain: QQAIDEQLRNAIEYTPEMFTQVPMLYINIEINNYPVKAFVDTGAQTTIMSTRLAKKTGLSRMIDKRFIGEARGVGTGKIIGRIHQAQVKIETQYIPCSFTVLDTDIDVLIGLDMLKRHLACVDLKENVLRIAEVETSFLSEAEIPKSFQEGLPAPTSVTTSSDKPLTPTKTSSTLPPQPGAVPALAPRTGMGPTPTGRSTAGATTATGRTFPEQTIKQLMDLGFPRDAVVKALKQTNGNAEFAASLLFQ
B3: Ddi1 UBL-RVP (1-325) (domain or fragment)
chain: MDLTISNELTGEIYGPIEVSEDMALTDLIALLQADCGFDKTKHDLYYNMDILDSNRTQSLKELGLKTDDLLLIRGKISNSIQTDAATLSDEAFIEQFRQELLNNQMLRSQLILQIPGLNDLVNDPLLFRERLGPLILQRRYGGYNTAMNPFGIPQDEYTRLMANPDDPDNKKRIAELLDQQAIDEQLRNAIEYTPEMFTQVPMLYINIEINNYPVKAFVDTGAQTTIMSTRLAKKTGLSRMIDKRFIGEARGVGTGKIIGRIHQAQVKIETQYIPCSFTVLDTDIDVLIGLDMLKRHLACVDLKENVLRIAEVETSFLSEAEIPK

Assays:
bovine ubiquitin [1] = target: T1, bovine ubiquitin (bovine, UniProt P0CG53 1-76); assay: ITC; one-site model, N=2
bovine ubiquitin [2] = target: T1, bovine ubiquitin; assay: ITC

Binder	Ka (bovine ubiquitin [1]) [M⁻¹]	Ka (bovine ubiquitin [2]) [M⁻¹]
B1	3160	
B2		23400
B3		3190
